Columns and labels:
Experiment in all cases: ELISA
[1] = molecular target: SARS-CoV-2 Omicron BA.2 RBD (SARS-CoV-2 Omicron BA.2)
[2] = molecular target: SARS-CoV-2 Omicron BA.1 RBD (SARS-CoV-2 Omicron BA.1)
SARS-CoV-2 Beta RBD = SARS-CoV-2 Beta RBD (SARS-CoV-2 Beta)
SARS-CoV-2 Delta RBD = SARS-CoV-2 Delta RBD (SARS-CoV-2 Delta)

Measured: EC50

B1: M8a-11 (antibody, V domains shown)
VH: EVQLQQSGPELVKPGASVKIPCKASGYTFTDYNMDWVKQSHEKSLEWIGEIDPNNGDTIYNQKFKGKASLTVDKSSSTAYMELRSLTSEDTAVYYCAKRGYYGSSLWWYFDVWGTGTTVTVSS
VL: DIQMTQSSSSFSVSLGDRVTITCKASEDIYIRLAWYQQRPGNAPRLLISNAISLETGVPSRFSGSGSGKDYTLSITSLQTEDVATYYCQQYWSTPWTFGGGTKLEIK
> 10 µg/mL: all assays above

B2: M8a-7 (antibody, V domains shown)
VH: QAYLQQSGAEMVRPGASVKMSCKASGYTFNNYNMHWVKQTPSQGLEWIGGFYPGNDDTAYSQKFKGKATLTVDKSSSTAFMHLSSLTSEDSAVYFCARSLGRYYAMDYWGQGTSVTVSS
VL: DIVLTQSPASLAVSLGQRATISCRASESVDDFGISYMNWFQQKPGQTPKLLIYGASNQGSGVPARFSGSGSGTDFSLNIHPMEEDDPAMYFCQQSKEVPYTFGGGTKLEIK
> 10 µg/mL: all assays above

B3: M8a-29 (antibody, V domains shown)
VH: EVQLQQSVAELVRPGASVKLSCTASGFNIKNTYMHWVKQRPEQGLEWIGRIDPSIDHTRYAPKFQGKAVITAFTSSNTAYLQLSSLTSEDTAIYYCAREGGGNYPYYYAIDYWGQGTSVTVSS
VL: DIVMTQAAFSNPVTLGTSASISCRSTKSLLHSNGITYLYWYLQKPGQSPQLLIYQMSNLASGVPDRFSSSGSGTDFTLRISRVEAEDVGVYYCAQNLELPYTFGGGTKLEIK
> 10 µg/mL: all assays above

B4: M8a-25 (antibody, V domains shown)
VH: EVQLQQSVAELVRPGASVKLSCTASGFNIKNTYMHWVKQRPEQGLEWIGRIDPSIDHTRYAPKFQGKAVITAFTSSNTAYLQLSSLTSEDTAIYYCAREGGGNYPYYYAIDYWGQGTSVTVSS
VL: DIQMTQSSSSFSVSLGDRVTITCKASEDIYIRLAWYQQRPGNAPRLLISNAISLETGVPSRFSGSGFGKDHTLSITSLQTEDVATYYCQQYWSTPWTFGGGTKLEIK
> 10 µg/mL: all assays above

B5: M8a-15 (antibody, V domains shown)
VH: QVQLQQSGPELARPGASVKLSCRASGYTVTSFGLSWMKQRTGQGLEWIGEIYPTSKNTYYNDKFRTKATLTADKSSSTAYMELRSLTSEDSAVYFCVLYDYFDYWGQGTTLTVSS
VL: QIVLTQSPAIMSASPGEKVTISCSASSSVSYMYWYQQKTGSSPKPWIYRTSNLASGVPVRFSGSGSGTSYSLTISSMEAEDAATYYCQQYQSYPRTFGGGTKLEIK
> 10 µg/mL: all assays above

B6: M8a-30 (antibody, V domains shown)
VH: QVHLQQSGPELVKPGASVKISCKASGYGFSSSWMNWVKQRPGKGLEWIGRIYPGDGDTNYNDKFQGKATLTADRSSSTAYMHLTSLTSADSAVYFCARSLLYSFDYWGQGTTLTVSS
VL: DVVVTQTPLSLPVSFGDQVSISCRSSQSLAGSYGHTYLSWYLHKSGQSPQLLIYGISNRFSGVPDRFSGSGSGTDFTLKISTIKPEDLGMYYCLQGTHQPLTFGAGTKLELK
> 10 µg/mL: [1] | [2] | SARS-CoV-2 Beta RBD

— US20230250157A1 (published 2023)
